Laboratory results reported in paper PMC4434891, “The Smc5-Smc6 heterodimer associates with DNA through several independent binding domains” (Scientific Reports, 2015).

Molecular target: T1, Smc6 FL (full-length Smc6) (UniProt Q12749 1-1114)
T1 construct: Smc6, full length, residues 1-1114; Vector YEpFAT4; also called FL Smc6; source: yeast, purified as previously described (StrepTrap column)
T1 sequence (looked up): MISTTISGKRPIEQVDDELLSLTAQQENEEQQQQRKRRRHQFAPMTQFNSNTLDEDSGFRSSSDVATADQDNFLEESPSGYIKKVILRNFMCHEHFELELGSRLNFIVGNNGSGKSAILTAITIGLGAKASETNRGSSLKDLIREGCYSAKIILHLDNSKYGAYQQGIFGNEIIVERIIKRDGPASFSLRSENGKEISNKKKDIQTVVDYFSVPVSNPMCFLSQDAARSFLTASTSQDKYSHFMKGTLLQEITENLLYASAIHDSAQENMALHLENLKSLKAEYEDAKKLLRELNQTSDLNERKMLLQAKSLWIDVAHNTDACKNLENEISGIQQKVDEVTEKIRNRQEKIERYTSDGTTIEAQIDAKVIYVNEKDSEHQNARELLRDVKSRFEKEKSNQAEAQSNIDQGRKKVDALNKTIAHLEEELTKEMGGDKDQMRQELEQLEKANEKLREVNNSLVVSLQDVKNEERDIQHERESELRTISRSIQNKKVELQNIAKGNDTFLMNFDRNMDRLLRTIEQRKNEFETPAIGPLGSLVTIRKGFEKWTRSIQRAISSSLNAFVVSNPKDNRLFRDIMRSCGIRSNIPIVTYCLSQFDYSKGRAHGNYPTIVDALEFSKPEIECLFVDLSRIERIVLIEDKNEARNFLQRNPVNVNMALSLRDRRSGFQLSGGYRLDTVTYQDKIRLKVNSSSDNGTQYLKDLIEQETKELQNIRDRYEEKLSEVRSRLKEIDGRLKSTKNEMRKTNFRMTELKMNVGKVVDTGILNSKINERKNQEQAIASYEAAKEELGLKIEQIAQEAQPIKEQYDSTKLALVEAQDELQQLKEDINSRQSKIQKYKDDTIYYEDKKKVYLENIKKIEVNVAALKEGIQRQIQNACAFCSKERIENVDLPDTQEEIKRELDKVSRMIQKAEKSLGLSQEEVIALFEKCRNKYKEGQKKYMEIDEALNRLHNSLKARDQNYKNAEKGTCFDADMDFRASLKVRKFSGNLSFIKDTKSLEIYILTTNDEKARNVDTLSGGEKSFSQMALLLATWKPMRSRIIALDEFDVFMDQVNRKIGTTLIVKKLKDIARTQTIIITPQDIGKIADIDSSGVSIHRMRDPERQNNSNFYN
Experiment: SEC; StrepTrap eluates of Smc6 (5 mL) and Smc5 (150 uL) mixed, overnight at 4 °C, concentrated; complexes separated from monomeric subunits on Superose 6 10/300 in buffer G (25 mM potassium phosphate pH 8.0, 750 mM NaCl, 15% glycerol, 0.2% Tween 20, 2 mM 2-ME, 1 mM EDTA)
Details: both partners purified

B1: Smc5 FL (full-length Smc5) (natural protein, UniProt Q08204 1-1093, looked up)
chain: MTSLIDLGRYVERTHHGEDTEPRSKRVKIAKPDLSSFQPGSIIKIRLQDFVTYTLTEFNLSPSLNMIIGPNGSGKSTFVCAVCLGLAGKPEYIGRSKKVEDFIKNGQDVSKIEITLKNSPNVTDIEYIDARDETIKITRIITRSKRRSDYLINDYQVSESVVKTLVAQLNIQLDNLCQFLSQERVEEFARLKSVKLLVETIRSIDASLLDVLDELRELQGNEQSLQKDLDFKKAKIVHLRQESDKLRKSVESLRDFQNKKGEIELHSQLLPYVKVKDHKEKLNIYKEEYERAKANLRAILKDKKPFANTKKTLENQVEELTEKCSLKTDEFLKAKEKINEIFEKLNTIRDEVIKKKNQNEYYRGRTKKLQATIISTKEDFLRSQEILAQTHLPEKSVFEDIDIKRKEIINKEGEIRDLISEIDAKANAINHEMRSIQRQAESKTKSLTTTDKIGILNQDQDLKEVRDAVLMVREHPEMKDKILEPPIMTVSAINAQFAAYLAQCVDYNTSKALTVVDSDSYKLFANPILDKFKVNLRELSSADTTPPVPAETVRDLGFEGYLSDFITGDKRVMKMLCQTSKIHTIPVSRRELTPAQIKKLITPRPNGKILFKRIIHGNRLVDIKQSAYGSKQVFPTDVSIKQTNFYQGSIMSNEQKIRIENEIINLKNEYNDRKSTLDALSNQKSGYRHELSELASKNDDINREAHQLNEIRKKYTMRKSTIETLREKLDQLKREARKDVSQKIKDIDDQIQQLLLKQRHLLSKMASSMKSLKNCQKELISTQILQFEAQNMDVSMNDVIGFFNEREADLKSQYEDKKKFVKEMRDTPEFQSWMREIRSYDQDTKEKLNKVAEKYEEEGNFNLSFVQDVLDKLESEIAMVNHDESAVTILDQVTAELRELEHTVPQQSKDLETIKAKLKEDHAVLEPKLDDIVSKISARFARLFNNVGSAGAVRLEKPKDYAEWKIEIMVKFRDNAPLKKLDSHTQSGGERAVSTVLYMIALQEFTSAPFRVVDEINQGMDSRNERIVHKAMVENACAENTSQYFLITPKLLTGLHYHEKMRIHCVMAGSWIPNPSEDPKMIHFGETSNYSFD
notes: Smc5, full length, residues 1-1093; Vector YEpFAT4; also called FL Smc5; source: yeast, purified as previously described (StrepTrap column)
B1: binds.
